Experimental data as given in patent US20140141023A1 (PIERRE FABRE MEDICAMENT, published 2014).

Columns and labels:
[1] = biological target: human protein Axl expressed on cells (SN12C human renal tumor cells; CHO-Axl cells) (human) (UniProt P30530); assay: QIFIKIT quantitative flow cytometry on Calu-1 cells (lung)
[2] = biological target: human protein Axl expressed on cells (SN12C human renal tumor cells; CHO-Axl cells) (human) (UniProt P30530); assay: QIFIKIT quantitative flow cytometry on MCF7 cells (breast)
[3] = biological target: human protein Axl expressed on cells (SN12C human renal tumor cells; CHO-Axl cells) (human) (UniProt P30530); assay: QIFIKIT quantitative flow cytometry on SN12C cells (renal)
[4] = biological target: human protein Axl expressed on cells (SN12C human renal tumor cells; CHO-Axl cells) (human) (UniProt P30530); assay: flow cytometry, labelling of untreated (No Ab) SN12C cells
[5] = biological target: human protein Axl expressed on cells (SN12C human renal tumor cells; CHO-Axl cells) (human) (UniProt P30530); assay: QIFIKIT quantitative flow cytometry on PC3 cells (prostate)
[6] = biological target: human protein Axl expressed on cells (SN12C human renal tumor cells; CHO-Axl cells) (human) (UniProt P30530); assay: QIFIKIT quantitative flow cytometry on NCI-H125 cells (NSCLC)
[7] = biological target: human protein Axl expressed on cells (SN12C human renal tumor cells; CHO-Axl cells) (human) (UniProt P30530); assay: QIFIKIT quantitative flow cytometry on NCI-H226 cells (NSCLC)
[8] = biological target: human protein Axl expressed on cells (SN12C human renal tumor cells; CHO-Axl cells) (human) (UniProt P30530); assay: QIFIKIT quantitative flow cytometry on Panc1 cells (pancreas)
[9] = biological target: human protein Axl expressed on cells (SN12C human renal tumor cells; CHO-Axl cells) (human) (UniProt P30530); assay: QIFIKIT quantitative flow cytometry on DU-145 cells (prostate)
[10] = biological target: human protein Axl expressed on cells (SN12C human renal tumor cells; CHO-Axl cells) (human) (UniProt P30530); assay: QIFIKIT quantitative flow cytometry on A172 cells (glioblastoma)
[11] = biological target: human protein Axl expressed on cells (SN12C human renal tumor cells; CHO-Axl cells) (human) (UniProt P30530); assay: QIFIKIT quantitative flow cytometry on MDA-MB-231 cells (breast)
[12] = biological target: human protein Axl expressed on cells (SN12C human renal tumor cells; CHO-Axl cells) (human) (UniProt P30530); assay: QIFIKIT quantitative flow cytometry on MDA-MB-435S cells (breast)
[13] = biological target: human protein Axl expressed on cells (SN12C human renal tumor cells; CHO-Axl cells) (human) (UniProt P30530); assay: QIFIKIT quantitative flow cytometry on A431 cells (epidermoid carcinoma)
[14] = biological target: human protein Axl expressed on cells (SN12C human renal tumor cells; CHO-Axl cells) (human) (UniProt P30530); assay: Qifikit (Dako) quantitative flow cytometry on SN12C human renal cancer cells
[15] = biological target: human protein Axl expressed on cells (SN12C human renal tumor cells; CHO-Axl cells) (human) (UniProt P30530); assay: flow cytometry, labelling of SN12C cells treated 24 h with 9G4 at 10 µg/ml
[16] = biological target: monkey Axl receptor expressed on the surface of COS7 cells (African green monkey); assay: flow cytometry titration on COS7 cells
[17] = biological target: monkey Axl receptor expressed on the surface of COS7 cells (African green monkey); assay: flow cytometry on COS7 cells, goat anti-mouse Alexa 488
[18] = biological target: T1, human protein Axl expressed on cells (SN12C human renal tumor cells; CHO-Axl cells) (human, UniProt P30530 26-894); assay: flow cytometry on SN12C cells, goat anti-mouse Alexa 488
T1 construct: also called membrane Axl receptor; cell-surface Axl
T1 sequence: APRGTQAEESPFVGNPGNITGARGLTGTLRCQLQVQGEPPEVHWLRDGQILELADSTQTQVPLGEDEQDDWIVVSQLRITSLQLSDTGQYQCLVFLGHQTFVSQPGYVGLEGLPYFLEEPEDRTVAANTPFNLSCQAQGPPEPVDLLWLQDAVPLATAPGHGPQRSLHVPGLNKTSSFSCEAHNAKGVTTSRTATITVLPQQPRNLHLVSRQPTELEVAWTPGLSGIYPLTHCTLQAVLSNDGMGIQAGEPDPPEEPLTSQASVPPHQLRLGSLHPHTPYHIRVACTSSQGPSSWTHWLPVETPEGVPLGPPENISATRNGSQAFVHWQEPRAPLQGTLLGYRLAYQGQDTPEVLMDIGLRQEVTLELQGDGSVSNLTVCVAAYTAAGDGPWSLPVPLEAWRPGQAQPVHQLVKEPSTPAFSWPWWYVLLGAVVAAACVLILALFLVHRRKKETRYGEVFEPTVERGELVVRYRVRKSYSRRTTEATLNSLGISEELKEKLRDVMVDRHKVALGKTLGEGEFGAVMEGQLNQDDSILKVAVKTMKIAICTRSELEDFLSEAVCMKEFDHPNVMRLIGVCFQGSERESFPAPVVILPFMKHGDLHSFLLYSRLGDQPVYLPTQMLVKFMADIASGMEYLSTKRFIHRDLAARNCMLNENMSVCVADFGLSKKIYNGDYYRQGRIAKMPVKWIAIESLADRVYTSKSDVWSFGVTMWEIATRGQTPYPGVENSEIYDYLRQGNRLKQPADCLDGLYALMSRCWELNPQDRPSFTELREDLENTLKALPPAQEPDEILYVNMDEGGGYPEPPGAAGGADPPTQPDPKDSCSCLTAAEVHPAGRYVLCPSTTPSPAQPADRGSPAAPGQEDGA

**Q.** How did the ABC (Qifikit) [1] turn out when “MAB154 anti-Axl commercial antibody (R and D Systems)” was run?
**A.** > 100000 ABC

**Q.** What about the ABC (Qifikit) [2] of the same molecule?
**A.** 71 ABC

**Q.** What about the ABC (Qifikit) [3] of the same molecule?
**A.** > 100000 ABC

**Q.** What about the MFI at T24 h [4] of the same molecule?
**A.** 950 MFI

**Q.** And the ABC (Qifikit) [5]?
**A.** 8420 ABC

**Q.** And the ABC (Qifikit) [6]?
**A.** 5540 ABC

**Q.** What about the ABC (Qifikit) [7] of the same molecule?
**A.** 32100 ABC

**Q.** What about the ABC (Qifikit) [8] of the same molecule?
**A.** 36800 ABC

**Q.** What about the ABC (Qifikit) [9] of the same molecule?
**A.** 55300 ABC

**Q.** And the ABC (Qifikit) [10]?
**A.** 52400 ABC

**Q.** And the ABC (Qifikit) [11]?
**A.** 61200 ABC

**Q.** And the ABC (Qifikit) [12]?
**A.** 17800 ABC

**Q.** And the ABC (Qifikit) [13]?
**A.** 3950 ABC

**Q.** And the Antigen binding capacity (Qifikit) [14]?
**A.** > 100000 ABC

**Q.** 9G4 (mIgG1 isotype control antibody) was tested. Which MFI at T24 h [4] did it give?
**A.** 11 MFI

**Q.** And the MFI at T24 h [15]?
**A.** 13 MFI

B1: 1613F12 (antibody, V domains shown)
VH: EVHLQQSGAELVKPGASVKLSCTASGFNIRDTYIHWVKQRPEQGLEWIGRLDPANGHTKYGPNFQGRATMTSDTSSNTAYLQLSSLTSEDTAVYYCARGAYYYGSSGLFYFDYWGQGTTLSVSS
VL: DVQITQSPSYLATSPGETITINCRASKSISKYLAWYQEKPGKTNKLLIYSGSTLQSGVPSRFSGSGSGTDFTLTISSLEPEDFAMYFCQQHHEYPLTFGAGTELELK
notes: also called 1613F12 antibody; 1613F12 Mab
**Q.** B1 was tested. Which concentration above which the plateau is reached [16] did it give?
**A.** > 420 pM

**Q.** What about the EC50 (read off the curve) [17] of the same molecule?
**A.** 1 nM

**Q.** And the “EC50 (read off the curve)” value [18]?
**A.** ~0.9 nM
